Among the data in publication PMC5472717 are stoichiometry N and Kd values, retold here.

Usually stoichiometry N stands for the number of molecules, sites or subunits per partner or assembly. Usually Kd stands for the equilibrium constant for the complex coming apart. A higher Kd goes with a looser complex.

For data set [1], the target named is Zur (zinc uptake regulator) of Streptomyces coelicolor (Streptomyces coelicolor). The data set can be described thus: native gel or EMSA; EMSA of purified Zur (0-90 nM) on 32P-labelled znuA and zitB DNA probes (25, 33, 46, 114 bp) with 0-20 uM ZnSO4; 20 mM Tris-HCl pH 7.8, 50 mM KCl, 1 mM DTT, room temperature; the number of Zur chains in each shifted band was estimated from mobility on native PAGE at different acrylamide percentages; Zur oligomers seen only on DNA.

In data set [2] the test system is Zur (zinc uptake regulator) (Streptomyces coelicolor A3(2) M145?). The data set can be described thus: EMSA. The note with it: 5 uM ZnSO4; 20 mM Tris-HCl pH 7.8, 50 mM KCl, 1 mM DTT, 0.1 mg/ml BSA, 5% glycerol, 0.1 ug poly(dI-dC) per 20 ul, 0-20 uM ZnSO4, room temperature 20 min; gel 5% PAGE in TB …. (A gel shift assay detects complexes by their altered migration in electrophoresis.)

With “Zur (zinc uptake regulator) of Streptomyces coelicolor (natural protein)”, the stoichiometry N in data set [1] is 2. The substance “GCACATGACAACGGTGTTCAGTGCC (double strand) [zitB 25 bp Zur-box probe (-63 to -39)]” gave a Kd in data set [2] of 19.3 nM.
